Results published in patent US20250250357A1 (NANJING ZAIMING PHARMACEUTICAL, published 2025).

T1: human MSLN-R1-his protein (human, UniProt Q13421 296-390)
T1 construct: Region 1 of human mesothelin, made in HEK293E cells, His-tagged; also called human MSLN-R1 protein; hMSLN-R1-his; not shown: His tag
T1 chain: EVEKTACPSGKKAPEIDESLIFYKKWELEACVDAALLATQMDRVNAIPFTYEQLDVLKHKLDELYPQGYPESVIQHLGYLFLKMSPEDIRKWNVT

B1: S009-F8-33.12 (antibody, human IgG1, kappa, V domains shown)
VH: EVQLQQSGAELVKPGASVKLSCTASAFNIKDYYMHWVKQRTEQGLEWIGRIDPEDGETKYAPKFQGKATITADTSSNTAYLQLSSLTSEDTAVYYCASGSGTGAMDYWGQGTSVTVSS
VL: DIVMTQSQKFMSTSVGDRVSITCKASQNVRTAVGWYQQKPGQSPKALIYLASNRHTGVPDRFTGSGSGTDFTLTISNVQSEDLADYFCLQHWNSPYTFGGGTKLVIKR
B2: S009-F8-27.1 (antibody, human IgG1, kappa, V domains shown)
VH: EVQLVESGGGLVKPGGSLKLSCAASGFTFSSYAMSWVRQTPEKRLEWVATISDGGNYTYYPDNVKGRFTISRDNAKNNLYLQMSHLKSEDTAMYYCAGDRGYPYAMDSWGQGTSVTVSS
VL: NIMMTQSPSSLAVSAGEKVTMSCKSSQSVLYSSNQKNYLAWYQQKPGQSPKLLIYWASTRESGVPDRFTGSGSGTDFTLTISNVHAEDLAVYYCHQYLSSLTFGAGTKLELKR
B3: S009-F8-28.23 (antibody, human IgG1, kappa, V domains shown)
VH: EVQLVESGGDLVKPGGSLKLSCAASGFTFSSYAMSWVRQTPEKRLEWVATISDGGSYTYYPDNVEGRFTISRDNAKNNLYLQMSHLKSEDTAMYYCAGDRGYSYALDYWGQGTSVTVSS
VL: NIMMTQSPSSLAVSAGEKVTMSCKSSQSVLYSSNQKNYLAWYQQKPGQSPKLLIYWASTRESGVPDRFTGSGSGTDFTLTISSVQAEDLAVYYCHQYLSSLTFGAGTKLELKR
B4: S009-F8-31.22 (antibody, human IgG1, kappa, V domains shown)
VH: EVQLVESGGDLVKPGGSLKLSCAASGFTFSTYGMSWVRQTPDKRLEWVATISSGGSYTYYPDSLKGRFTISRDNAKNTLYLQMSSLKSEDTAMYYCARHEGYYYGKDYWGQGTTLTVSS
VL: DIVLTQSPATLSVTPGDSVSLSCRASHSISNNLHWYQQKSHESPRLLIKYASQSISGIPSKFSGSGSGTDFTLSINSVETEDFGMYFCQQTNSWPLTFGAGTKLELKR
B5: S009-F8-32.3 (antibody, human IgG1, kappa, V domains shown)
VH: QVQLKESGPGLVAPSQSLSITCTVSGFSLSSYAISWVRQPPGKGLEWLGVIWTGGGTNYNSALKSRLSISKDNSKSQVFLKMNSLQTDDTARFYCARNNYGRLDYAMDYWGQGTSVTVSS
VL: DVVMTQTPLSLPVSLGDQASISCRSSQSLVHGNGNTYLHWYLQKPGQSPKLLIYKVSNRFSGVPDRFSGSGSGTDFTLKISRVETEDLGVYFCSQSTHVPFTFGSGTKLEIKR
B6: S009-F8-29.1 (antibody, human IgG1, kappa, V domains shown)
VH: QVQLQQSGAELARPGASVKMSCKASGYTFISYTMHWVKQRPGQGLEWIGYINPSSGYTKYNQKFKDKATLTADKSSSTAYMQLNSLTSEDSAVYYCARYYSNPDYYAMDYWGQGTSVTVSS
VL: QIVLTQSPAIMSASPGEKVTITCSASSSVSYMHWFQQKPGTSPKLWIYSTSNLASGVPARFSGSGSGTSYSLTISRMEAEDAATYYCQQRSSYPLTFGGGTKLELKR

Assays:
[1] = target: T2, human MSLN-R3-his protein (human, UniProt Q13421 487-598); assay: ELISA on coated MSLN-R3; antibody 100 nM
T2 construct: Region 3 of human mesothelin, made in HEK293E cells, His-tagged; also called human MSLN-R3 protein; hMSLN-R3-his; not shown: His tag
T2 sequence (Q13421 495-606): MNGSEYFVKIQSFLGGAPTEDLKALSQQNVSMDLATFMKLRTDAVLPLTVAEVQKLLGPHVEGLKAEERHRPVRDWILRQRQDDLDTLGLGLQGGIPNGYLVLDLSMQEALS

[2] = target: T1, human MSLN-R1-his protein; assay: ELISA on coated MSLN-R1; antibody 0.1 nM
Experimental: (§1) The plate was sealed with a plastic film and incubated at 4° C. overnight. The next day, the plate was washed twice with PBST, and a blocking buffer [PBS+2% (w/w) BSA] was added for blocking at room temperature for 2 h. The blocking buffer was discarded, and a chimeric antibody or negative control antibody serially diluted from 100 nM was added at 50 μL/well. After incubation at 37° C. for 2 h, the plate was washed 3 times with PBST. […] After incubation at 37° C. for 2 h, the plate was washed 5 times with PBST. A TMB substrate was added at 50 μL/well for incubation at room temperature for 5-10 min, and then a stop solution (1.0 N HCl) was added at 50 μL/well.

[3] = target: T3, human MSLN-R2-his protein (human, UniProt Q13421 391-486); assay: ELISA on coated MSLN-R2; antibody 0.01 nM
T3 construct: Region 2 of human mesothelin, made in HEK293E cells, His-tagged; also called human MSLN-R2 protein; hMSLN-R2-his; not shown: His tag
T3 sequence (Q13421 other isoform, or with tags, fused parts or gaps): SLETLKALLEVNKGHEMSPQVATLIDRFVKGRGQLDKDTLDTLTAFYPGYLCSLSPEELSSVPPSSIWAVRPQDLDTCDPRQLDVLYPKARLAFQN

[4] = target: T3, human MSLN-R2-his protein; assay: ELISA on coated MSLN-R2; antibody 100 nM
[5] = target: T1, human MSLN-R1-his protein; assay: ELISA on coated MSLN-R1; antibody 0.001 nM
[6] = target: T3, human MSLN-R2-his protein; assay: ELISA on coated MSLN-R2; antibody 0.0001 nM
[7] = target: T2, human MSLN-R3-his protein; assay: ELISA on coated MSLN-R3; antibody 0.001 nM
Experimental: as §1

[8] = target: T3, human MSLN-R2-his protein; assay: ELISA on coated MSLN-R2; antibody 0.001 nM
Experimental: as §1

[9] = target: T2, human MSLN-R3-his protein; assay: ELISA on coated MSLN-R3; no antibody (blank)
[10] = target: T2, human MSLN-R3-his protein; assay: ELISA on coated MSLN-R3; antibody 10 nM
[11] = target: T3, human MSLN-R2-his protein; assay: ELISA on coated MSLN-R2; no antibody (blank)
Experimental: as §1

[12] = target: T1, human MSLN-R1-his protein; assay: ELISA on coated MSLN-R1; antibody 0.01 nM
[13] = target: T1, human MSLN-R1-his protein; assay: ELISA on coated MSLN-R1; antibody 1 nM
[14] = target: T1, human MSLN-R1-his protein; assay: ELISA on coated MSLN-R1; antibody 100 nM
Experimental: as §1

[15] = target: T2, human MSLN-R3-his protein; assay: ELISA on coated MSLN-R3; antibody 1 nM
Experimental: as §1

[16] = target: T2, human MSLN-R3-his protein; assay: ELISA on coated MSLN-R3; antibody 0.0001 nM
[17] = target: T3, human MSLN-R2-his protein; assay: ELISA on coated MSLN-R2; antibody 10 nM
[18] = target: T3, human MSLN-R2-his protein; assay: ELISA on coated MSLN-R2; antibody 1 nM
Experimental: as §1

[19] = target: T2, human MSLN-R3-his protein; assay: ELISA on coated MSLN-R3; antibody 0.01 nM
[20] = target: T3, human MSLN-R2-his protein; assay: ELISA on coated MSLN-R2; antibody 0.1 nM
Experimental: as §1

[21] = target: T1, human MSLN-R1-his protein; assay: ELISA on coated MSLN-R1; antibody 10 nM
Experimental: as §1

[22] = target: T2, human MSLN-R3-his protein; assay: ELISA on coated MSLN-R3; antibody 0.1 nM
Experimental: as §1

[23] = target: T1, human MSLN-R1-his protein; assay: ELISA on coated MSLN-R1; antibody 0.0001 nM
Experimental: as §1

[24] = target: T1, human MSLN-R1-his protein; assay: ELISA on coated MSLN-R1; no antibody (blank)

Binder | OD450 [1] [OD450] | OD450 [2] [OD450] | OD450 [3] [OD450] | OD450 [4] [OD450] | OD450 [5] [OD450] | OD450 [6] [OD450] | OD450 [7] [OD450] | OD450 [8] [OD450] | OD450 [9] [OD450] | OD450 [10] [OD450] | OD450 [11] [OD450] | OD450 [12] [OD450] | OD450 [13] [OD450] | OD450 [14] [OD450] | OD450 [15] [OD450] | OD450 [16] [OD450] | OD450 [17] [OD450] | OD450 [18] [OD450] | OD450 [19] [OD450] | OD450 [20] [OD450] | further results
B1 | 0.06 | 1.6 | 0.04 | 0.05 | 0.11 | 0.04 | 0.04 | 0.04 | 0.03 | 0.05 | 0.04 | 0.43 | 2.45 | 2.64 | 0.04 | 0.04 | 0.04 | 0.04 | 0.04 | 0.04 | OD450 [21]: 2.66 OD450; OD450 [22]: 0.03 OD450; OD450 [23]: 0.05 OD450; OD450 [24]: 0.04 OD450
B2 | 0.06 | 0.05 | 0.04 | 0.05 | 0.04 | 0.04 | 0.05 | 0.05 | 0.05 | 0.05 | 0.05 | 0.04 | 0.05 | 0.35 | 0.04 | 0.04 | 0.05 | 0.05 | 0.04 | 0.04 | OD450 [21]: 0.08 OD450; OD450 [22]: 0.07 OD450; OD450 [23]: 0.04 OD450; OD450 [24]: 0.05 OD450
B3 | 0.07 | 0.04 | 0.04 | 0.05 | 0.05 | 0.04 | 0.04 | 0.04 | 0.04 | 0.05 | 0.04 | 0.04 | 0.04 | 0.05 | 0.04 | 0.04 | 0.04 | 0.04 | 0.07 | 0.04 | OD450 [21]: 0.04 OD450; OD450 [22]: 0.04 OD450; OD450 [23]: 0.04 OD450; OD450 [24]: 0.04 OD450
B4 | 0.13 | 1.95 | 0.04 | 0.08 | 0.19 | 0.05 | 0.04 | 0.04 | 0.05 | 0.07 | 0.05 | 0.8 | 2.05 | 2.12 | 0.05 | 0.04 | 0.05 | 0.04 | 0.04 | 0.05 | OD450 [21]: 2.17 OD450; OD450 [22]: 0.04 OD450; OD450 [23]: 0.08 OD450; OD450 [24]: 0.05 OD450
B5 | 0.07 | 1.64 | 0.04 | 0.07 | 0.11 | 0.04 | 0.04 | 0.04 | 0.04 | 0.04 | 0.04 | 0.42 | 2.6 | 2.81 | 0.04 | 0.04 | 0.05 | 0.04 | 0.04 | 0.04 | OD450 [21]: 2.79 OD450; OD450 [22]: 0.04 OD450; OD450 [23]: 0.06 OD450; OD450 [24]: 0.04 OD450
B6 | 0.1 | 0.04 | 0.04 | 0.06 | 0.04 | 0.05 | 0.15 | 0.04 | 0.04 | 0.06 | 0.04 | 0.04 | 0.04 | 0.05 | 0.06 | 0.06 | 0.04 | 0.04 | 0.04 | 0.04 | OD450 [21]: 0.04 OD450; OD450 [22]: 0.04 OD450; OD450 [23]: 0.04 OD450; OD450 [24]: 0.04 OD450
